Measurements published in patent US20250002588A1 (DIAGONAL THERAPEUTICS, published 2025).
Where two headings read alike, the source gives them in different places.

Tests used:
[1] = target: T1, ALK-1/BMPR-2 receptor pair of the PathHunter U2Os dimerization cells (DiscoverX 93-0962C3) (UniProt P37023 22-503; Q13873 27-1038); test: cell-based or functional assay
[2] = target: T2, human BMPRII protein (Sino Biological, #10551-H08H) (human, UniProt Q13873 27-150); test: ELISA, coated human BMPRII
T2 sequence (looked up): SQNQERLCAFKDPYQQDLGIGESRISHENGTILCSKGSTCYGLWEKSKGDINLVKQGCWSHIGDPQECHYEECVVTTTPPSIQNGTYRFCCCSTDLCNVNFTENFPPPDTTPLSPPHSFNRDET
Experimental: These binders were then tested using an ELISA assay. High binding plates (Corning, 9018) were coated with either 2 μg/ml of human BMPRII protein (Sino Biological, #10551-H08H) or 2 μg/ml of human ALK1 protein (Sino Biological, #10066-H08H) overnight at 4C. The plates were then washed three times with wash buffer (R&D Systems, WA126). […] The plates were then washed three times with wash buffer and DGL antibodies or controls, which were diluted with PBS and 0.1% BSA. The antibodies were incubated for one hour at room temperature and then the plates were washed three times with wash buffer. The plates were then incubated with mouse anti-human IgG Fc secondary—HRP (diluted with PBS/0.1% BSA); 100 ul per well at 2 μg/ml and incubated at room temperature for one hour. The plate was washed three times in wash buffer and then 100 ul TMB (R&D Systems, DY9998B, substrate reagent pack). After the wells turn blue, 50 ul of stop solution (R&D Systems, DY994) was added to each well and the absorbance of the plate was read at 450 nm. results can be found in Table 8.

[3] = target: human ALK1 protein (Sino Biological, #10066-H08H) (human, UniProt P37023 22-118); test: ELISA, coated human ALK1
Procedure, shortened: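 Antibody binding is read as A450 via TMB after anti-human IgG Fc–HRP secondary (2 μg/ml, 1 h, room temperature). Antibodies, diluted in PBS/0.1% BSA, were incubated 1 h at room temperature on wells coated overnight at 4 °C with 2 μg/ml BMPRII or ALK1.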

[4] = target: T1, ALK-1/BMPR-2 receptor pair of the …; test: cell-based or functional assay; remark: listed apart in the source

T1 sequence (P37023 22-503, one chain of several): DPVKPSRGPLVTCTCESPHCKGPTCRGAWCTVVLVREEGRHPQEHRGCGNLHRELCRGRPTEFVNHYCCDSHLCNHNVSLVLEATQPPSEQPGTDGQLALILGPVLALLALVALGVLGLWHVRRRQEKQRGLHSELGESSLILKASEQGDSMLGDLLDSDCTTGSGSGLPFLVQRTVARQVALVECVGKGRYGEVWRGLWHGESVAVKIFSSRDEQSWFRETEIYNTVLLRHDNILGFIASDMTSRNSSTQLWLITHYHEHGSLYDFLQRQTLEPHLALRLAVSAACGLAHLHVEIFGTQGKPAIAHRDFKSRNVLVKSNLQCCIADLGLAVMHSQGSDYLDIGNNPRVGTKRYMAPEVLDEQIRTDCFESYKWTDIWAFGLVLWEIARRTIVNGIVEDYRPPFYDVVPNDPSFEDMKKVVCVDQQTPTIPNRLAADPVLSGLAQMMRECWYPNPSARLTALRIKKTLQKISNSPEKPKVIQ
Sequence of human ALK1 protein (Sino Biological, #10066-H08H) (P37023 22-118 limits assumed): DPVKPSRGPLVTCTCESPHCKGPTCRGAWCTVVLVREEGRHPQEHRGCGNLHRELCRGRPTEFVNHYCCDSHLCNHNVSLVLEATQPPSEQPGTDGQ

| Binder | % Emax BMP9 [1] [%] | Emax (RLU) [1] [RLU] | Abs450 1 nM [2] | Abs450 10 nM [2] | Abs450 100 nM [2] | Abs450 1 nM [3] | Abs450 10 nM [3] | Abs450 100 nM [3] | % Emax BMP9 [4] [%] | Emax (RLU) [4] [RLU] |
| --- | --- | --- | --- | --- | --- | --- | --- | --- | --- | --- |
| DGL641 (bispecific antibody) chain 1: EVQLLESGGGLVQPGGSLRLSCAASGFTFSNAWMNWVRQAPGKGLEWVSSISSSSSYIYYADSVKGRFTISRDNSKNTLYLQMNSLRAEDTAVYYCARAVAAGGMFWGLDQWGQGTLVTVTSSGGGGSGGGGSGGGGSQSVLTQPPSASGTPGQRVTISCSGSRSNIGSNSVHWYQQLPGTAPKLLIYGNSNRPSGVPDRFSGSKSGTSASLAISGLRSEDEADYYCQSYDSSLNDHVVFGGGTKLTVLDKTHTCPPCPAPEAAGAPSVFLFPPKPKDTLMISRTPEVTCVVVDVSHEDPEVKFNWYVDGVEVHNAKTKPREEQYNSTYRVVSVLTVLHQDWLNGKEYKCKVSNKALPAPIEKTISKAKGQPREPQVCTLPPSRDELTKNQVSLSCAVKGFYPSDIAVEWESNGQPENNYKTTPPVLDSDGSFFLVSKLTVDKSRWQQGNVFSCSVMHEALHNHYTQKSLSLSPGWSHPQFEK chain 2: not shown | 76 | 1.41e+06 | 0.33 | 0.43 | 0.9 | 0.07 | 0.15 | 0.83 | – | – |
| DGL644 (bispecific antibody) chain 1: EVQLLESGGGLVQPGGSLRLSCAASGFTFSNAWMNWVRQAPGKGLEWVSSISSSSSYIYYADSVKGRFTISRDNSKNTLYLQMNSLRAEDTAVYYCARSNGSGGSTSPLDLWGQGTLVTVTSSGGGGSGGGGSGGGGSQSVLTQPPSASGTPGQRVTISCSGSRSNIGSNSVHWYQQLPGTAPKLLIYGNSNRPSGVPDRFSGSKSGTSASLAISGLRSEDEADYYCQSYDSSLNDHVVFGGGTKLTVLDKTHTCPPCPAPEAAGAPSVFLFPPKPKDTLMISRTPEVTCVVVDVSHEDPEVKFNWYVDGVEVHNAKTKPREEQYNSTYRVVSVLTVLHQDWLNGKEYKCKVSNKALPAPIEKTISKAKGQPREPQVCTLPPSRDELTKNQVSLSCAVKGFYPSDIAVEWESNGQPENNYKTTPPVLDSDGSFFLVSKLTVDKSRWQQGNVFSCSVMHEALHNHYTQKSLSLSPGWSHPQFEK chain 2: not shown | 8 | 153000 | 0.23 | 0.2 | 0.17 | 0.06 | 0.1 | 0.54 | – | – |
| DGL645 (bispecific antibody) chain 1: EVQLLESGGGLVQPGGSLRLSCAASGFTFSNAWMNWVRQAPGKGLEWVSSISSSSSYIYYADSVKGRFTISRDNSKNTLYLQMNSLRAEDTAVYYCARAVAGTSMWYGLDQWGQGTLVTVTSSGGGGSGGGGSGGGGSQSVLTQPPSASGTPGQRVTISCSGSRSNIGSNSVHWYQQLPGTAPKLLIYGNSNRPSGVPDRFSGSKSGTSASLAISGLRSEDEADYYCQSYDSSLNDHVVFGGGTKLTVLDKTHTCPPCPAPEAAGAPSVFLFPPKPKDTLMISRTPEVTCVVVDVSHEDPEVKFNWYVDGVEVHNAKTKPREEQYNSTYRVVSVLTVLHQDWLNGKEYKCKVSNKALPAPIEKTISKAKGQPREPQVCTLPPSRDELTKNQVSLSCAVKGFYPSDIAVEWESNGQPENNYKTTPPVLDSDGSFFLVSKLTVDKSRWQQGNVFSCSVMHEALHNHYTQKSLSLSPGWSHPQFEK chain 2: not shown | 19 | 353000 | 0.23 | 0.21 | 0.16 | 0.07 | 0.13 | 0.59 | – | – |
| DGL647 (bispecific antibody) chain 1: EVQLLESGGGLVQPGGSLRLSCAASGFTFSNAWMNWVRQAPGKGLEWVSSISSSSSYIYYADSVKGRFTISRDNSKNTLYLQMNSLRAEDTAVYYCARAVAAGGFFWGLDQWGQGTLVTVTSSGGGGSGGGGSGGGGSQSVLTQPPSASGTPGQRVTISCSGSRSNIGSNSVHWYQQLPGTAPKLLIYGNSNRPSGVPDRFSGSKSGTSASLAISGLRSEDEADYYCQSYDSSLNDHVVFGGGTKLTVLDKTHTCPPCPAPEAAGAPSVFLFPPKPKDTLMISRTPEVTCVVVDVSHEDPEVKFNWYVDGVEVHNAKTKPREEQYNSTYRVVSVLTVLHQDWLNGKEYKCKVSNKALPAPIEKTISKAKGQPREPQVCTLPPSRDELTKNQVSLSCAVKGFYPSDIAVEWESNGQPENNYKTTPPVLDSDGSFFLVSKLTVDKSRWQQGNVFSCSVMHEALHNHYTQKSLSLSPGWSHPQFEK chain 2: not shown | 79 | 1.46e+06 | 0.25 | 0.51 | 1.9 | 0.07 | 0.16 | 0.84 | – | – |
| DGL648 (bispecific antibody) chain 1: EVQLLESGGGLVQPGGSLRLSCAASGFTFSNAWMNWVRQAPGKGLEWVSSISSSSSYIYYADSVKGRFTISRDNSKNTLYLQMNSLRAEDTAVYYCARAVAAGGLFWGLDQWGQGTLVTVTSSGGGGSGGGGSGGGGSQSVLTQPPSASGTPGQRVTISCSGSRSNIGSNSVHWYQQLPGTAPKLLIYGNSNRPSGVPDRFSGSKSGTSASLAISGLRSEDEADYYCQSYDSSLNDHVVFGGGTKLTVLDKTHTCPPCPAPEAAGAPSVFLFPPKPKDTLMISRTPEVTCVVVDVSHEDPEVKFNWYVDGVEVHNAKTKPREEQYNSTYRVVSVLTVLHQDWLNGKEYKCKVSNKALPAPIEKTISKAKGQPREPQVCTLPPSRDELTKNQVSLSCAVKGFYPSDIAVEWESNGQPENNYKTTPPVLDSDGSFFLVSKLTVDKSRWQQGNVFSCSVMHEALHNHYTQKSLSLSPGWSHPQFEK chain 2: not shown | 78 | 1.45e+06 | 0.24 | 0.33 | 0.77 | 0.08 | 0.17 | 0.8 | – | – |
| DGL649 (bispecific antibody) chain 1: EVQLLESGGGLVQPGGSLRLSCAASGFTFSLAWMNWVRQAPGKGLEWVSSISSSTSYIYYADSVKGRFTISRDNSKNTLYLQMNSLRAEDTAVYYCARAVAAGGMFWGLDQWGQGTLVTVTSSGGGGSGGGGSGGGGSQSVLTQPPSASGTPGQRVTISCSGSRSNIGSNSVHWYQQLPGTAPKLLIYGNSNRPSGVPDRFSGSKSGTSASLAISGLRSEDEADYYCQSYDSSLNDHVVFGGGTKLTVLDKTHTCPPCPAPEAAGAPSVFLFPPKPKDTLMISRTPEVTCVVVDVSHEDPEVKFNWYVDGVEVHNAKTKPREEQYNSTYRVVSVLTVLHQDWLNGKEYKCKVSNKALPAPIEKTISKAKGQPREPQVCTLPPSRDELTKNQVSLSCAVKGFYPSDIAVEWESNGQPENNYKTTPPVLDSDGSFFLVSKLTVDKSRWQQGNVFSCSVMHEALHNHYTQKSLSLSPGWSHPQFEK chain 2: not shown | 35 | 648000 | 0.3 | 0.32 | 0.76 | 0.07 | 0.18 | 0.81 | – | – |
| DGL869 (bispecific antibody) chain 1: not shown chain 2: EVQLLESGGGLVQPGGSLRLSCAASGFTFSDYYMTWIRQAPGKGLEWVSSISGGSTYYADSRKGRFTISRDNSENTLYLQMNSLRAEDTAVYYCARDFGVAGWFGQYGMDVWGQGTLVTVSSGGGGSGGGGSGGGGSQSVLTQPPSASGTPGQRVTISCTGSSSNIGAGYDVHWYQQLPGTAPKLLIYRSNQRPSGVPDRFSGSKSGTSASLAISGLRSEDEADYYCSSYAGNYNLVFGGGTKLTVLDKTHTCPPCPAPEAAGAPSVFLFPPKPKDTLMISRTPEVTCVVVDVSHEDPEVKFNWYVDGVEVHNAKTKPREEQYNSTYRVVSVLTVLHQDWLNGKEYKCKVSNKALPAPIEKTISKAKGQPREPQVCTLPPSRDELTKNQVSLSCAVKGFYPSDIAVEWESNGQPENNYKTTPPVLDSDGSFFLVSKLTVDKSRWQQGNVFSCSVMHEALHNHYTQKSLSLSPGWSHPQFEK | – | – | – | – | – | – | – | – | 56 | 1.44e+06 |
| DGL870 (bispecific antibody) chain 1: not shown chain 2: EVQLLESGGGLVQPGGSLRLSCAASGFTFSDYYMTWIRQAPGKGLEWVSSISGGSTYYADSRKGRFTISRDNSENTLYLQMNSLRAEDTAVYYCARDFGVAGWFGQYGMDVWGQGTLVTVSSGGGGSGGGGSGGGGSQSVLTQPPSASGTPGQRVTISCTGSSSNIGAGYDVHWYQQLPGTAPKLLIYRSNQRPSGVPDRFSGSKSGTSASLAISGLRSEDEADYYCSSYAGNYNLVFGGGTKLTVLDKTHTCPPCPAPEAAGAPSVFLFPPKPKDTLMISRTPEVTCVVVDVSHEDPEVKFNWYVDGVEVHNAKTKPREEQYNSTYRVVSVLTVLHQDWLNGKEYKCKVSNKALPAPIEKTISKAKGQPREPQVCTLPPSRDELTKNQVSLSCAVKGFYPSDIAVEWESNGQPENNYKTTPPVLDSDGSFFLVSKLTVDKSRWQQGNVFSCSVMHEALHNHYTQKSLSLSPGWSHPQFEK | – | – | – | – | – | – | – | – | 56 | 1.42e+06 |
